Data set [1] has as its system PIN-XTEN-dCas9-2xNLS (Streptococcus pyogenes). The experiment in a line: cell_activity. The conditions noted are these: no PAMmer, Northern dot blot; full-length Cas9 gave >95% loss in FIG. 8C.
Data set [2] concerns PIN-dCas9 deltaHNH del775-909 (Streptococcus pyogenes). Put plainly: cell_activity. To be noted: COSM6, Northern blot.

In the case of “CUG repeat-targeting sgRNA ; CUG repeat RNA”, the activity (% RNA remaining) in data set [1] stood at 35. This sequence had an activity in data set [2] of over 95 % RNA loss.

The values above are taken from patent publication US20200239863.
